Measurements as given in patent publication US20240254222A1 (Bayer, published 2024).
Residue numbers refer to the chain shown, from its start.

T1: Cyno Semaphorin3A-Sema Domain, TPP-19122 (cynomolgus (Macaca fascicularis), UniProt Q63548 21-569 (rat entry), limits assumed)
T1 construct: produced inhouse
T1 chain: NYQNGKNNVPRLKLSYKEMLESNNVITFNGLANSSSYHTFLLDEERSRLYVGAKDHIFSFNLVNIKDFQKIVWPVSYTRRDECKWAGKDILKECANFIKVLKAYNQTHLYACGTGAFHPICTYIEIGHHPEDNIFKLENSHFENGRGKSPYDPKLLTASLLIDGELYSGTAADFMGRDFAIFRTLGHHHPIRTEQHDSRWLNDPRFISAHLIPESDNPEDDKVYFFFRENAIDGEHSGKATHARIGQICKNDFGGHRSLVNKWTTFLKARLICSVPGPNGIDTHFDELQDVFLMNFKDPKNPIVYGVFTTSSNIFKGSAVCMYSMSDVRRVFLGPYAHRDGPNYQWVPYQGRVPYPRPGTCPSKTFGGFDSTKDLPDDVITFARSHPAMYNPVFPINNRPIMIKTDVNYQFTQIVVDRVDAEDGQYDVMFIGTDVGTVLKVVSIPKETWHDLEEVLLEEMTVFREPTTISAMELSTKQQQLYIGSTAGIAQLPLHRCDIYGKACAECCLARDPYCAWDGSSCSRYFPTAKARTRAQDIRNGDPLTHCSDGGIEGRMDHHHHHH

T2: Human Semaphorin3A-Sema Domain, TPP-19068 (human, UniProt Q14563 21-569)
T2 construct: produced inhouse in HEK293-6E; also called human monovalent Sema3A domain
T2 sequence: T1 chain with N61D, R205K, P213S, I303V, I396M, M402V, H450Y, T468A, I489V, S521A

T3: Mouse Semaphorin3A-Sema Domain, TPP-19069 (mouse, UniProt O08665 21-569)
T3 construct: produced inhouse
T3 sequence: T1 chain with Q3A, K102E, I126V, E138Q, N139D, F296S, I444V, V455I, I489V

B1: TPP-15051 (antibody, mouse IgG1)
heavy: EVQLLESGGGLVQPGGSLRLSCAASGFTFSSYPMGWVRQAPGKGLEWVAGIDDDGDSDTRYAPAVKGRATISRDNSKNTVYLQMNSLRAEDTAVYYCAKHTGIGANSAGSIDAWGQGTLVTVSSAKTTPPSVYPLAPGSAAQTNSMVTLGCLVKGYFPEPVTVTWNSGSLSSGVHTFPAVLQSDLYTLSSSVTVPSSTWPSETVTCNVAHPASSTKVDKKIVPRDCGCKPCICTVPEVSSVFIFPPKPKDVLTITLTPKVTCVVVDISKDDPEVQFSWFVDDVEVHTAQTQPREEQFNSTFRSVSELPIMHQDWLNGKEFKCRVNSAAFPAPIEKTISKTKGRPKAPQVYTIPPPKEQMAKDKVSLTCMITDFFPEDITVEWQWNGQPAENYKNTQPIMDTDGSYFVYSKLNVQKSNWEAGNTFTCSVLHEGLHNHHTEKSLSHSPGK
light: SYELTQPPSVSVSPGQTARITCSGGGSYTGSYYYGWYQQKPGQAPVTVIYYNNKRPSDIPERFSGSLSGTTNTLTISGVQAEDEADYYCGSADNSGDAFGTGTKVTVLGQPKSSPSVTLFPPSSEELETNKATLVCTITDFYPGVVTVDWKVDGTPVTQGMETTQPSKQSNNKYMASSYLTLTARAWERHSSYSCQVTHEGHTVEKSLSRADCS
B2: TPP-18533 (antibody, human IgG1, lambda, V domains shown)
VH: EVQLLESGGGLVQPGGSLRLSCAASGFTFSSYEMNWVRQAPGKGLEWVSGISWNSGSIGYADSVKGRFTISRDNSKNTLYLQMNSLRAEDTAVYYCARSGYSSSWFDPDFDYWGQGTLVTVSS
VL: QSVLTQPPSVSGAPGQRVTISCTGSSSNIGAGYDVHWYQQLPGTAPKLLIYGNSNRPSGVPDRFSGSKSGTSASLAITGLQAEDEADYYCSSYAGSNPYVVFGGGTKLTVLG
notes: IgG1
B3: TPP-25257 (antibody, human IgG1, lambda, V domains shown)
VH: B2 VH with T28D, S30D, S57W, G59D
VL: B2 VL with S91Q, S96P
B4: TPP-25064 (antibody, human IgG1, lambda, V domains shown)
VH: B2 VH with S30D, S57W, G59D
VL: B2 VL with N28D, S96P
B5: TPP-25224 (antibody, human IgG1, lambda, V domains shown)
VH: B2 VH with S30D, S57W, G59D
VL: B2 VL with S91Q, S96I
B6: TPP-25248 (antibody, human IgG1, lambda, V domains shown)
VH: B2 VH with T28D, S57W
VL: B2 VL with S91Q, S96P
B7: TPP-25255 (antibody, human IgG1, lambda, V domains shown)
VH: B2 VH with T28D, S57W, G59D
VL: B2 VL with S91Q, S96P
B8: TPP-25256 (antibody, human IgG1, lambda, V domains shown)
VH: B2 VH with S30D, S57W, G59D
VL: B2 VL with S91Q, S96P
B9: TPP-25448 (antibody, human IgG1, lambda, V domains shown)
VH: B2 VH with S30D, S57W, G59D
VL: B2 VL with N28D, S91Q, S96I
B10: TPP-25497 (antibody, human IgG1, lambda, V domains shown)
VH: B2 VH with T28D, S30D, S57W, G59D
VL: B2 VL with N28D, A94E, S96I
B11: TPP-25655 (antibody, human IgG1, lambda, V domains shown)
VH: B2 VH with T28D, S57W, G59D
VL: B2 VL with N53A, A94E, S96P
B12: TPP-26111 (antibody, human IgG1, lambda, V domains shown)
VH: B2 VH with S30D, S57W, G59D
VL: B2 VL with S96P

The binders below were run against Human Semaphorin3A-Fc (R&D Systems), TPP-13211 (human) (assay: cell-based or functional assay).

| Binder | EC50 (nM), GCC assay |
| --- | --- |
| B1 | 243 nM |

Target: T1, Cyno Semaphorin3A-Sema Domain, TPP-19122
Assay: SPR, captured antibody, Sema3A domain analyte
Experimental: (§1) To assess the binding kinetics and affinity of anti-Sema3A antibodies as well as their species cross-reactivity profile, binding assays were conducted using surface plasmon resonance (SPR). Binding assays were performed on a Biacore T200 instrument or on a Biacore 8K+ instrument (Cytiva) at 25° C. using assay buffer HBS P+, 300 mM NaCl, 0.75 mM CaCl₂, 2.5 mM MgCl₂, 1 mg/ml BSA, 0.05% NaN₃. Antibodies were captured either via anti-human Fc IgGs (“Human antibody capture kit”, Order No. BR100839, Cytiva) or in case of Fc-tagged analytes by anti-human Fab IgGs (“Human Fab capture kit”, Order No. 28958325, Cytiva) covalently amine coupled to a Series S CM5 sensor chip (Cytiva). The amine coupling was carried out according to the manufacturer's instructions using 1-ethyl-3-(3-dimethylaminopropyl) carbodiimide hydrochloride (EDC), N-hydroxysuccinimide (NHS) and ethanolamine HCl, pH 8.5 (“Amine Coupling Kit” BR-1000-50, Cytiva.). For phage display hits Fc-tagged human and mouse Sema3A was used as analytes in a concentration range from 1.56-200 nM. Human, mouse, cynomolgus, rat, dog and pig monovalent Sema3A domain were used as analytes in a concentration series from […] in multi cycle kinetics mode or in 100 nM for binding analysis only. The sensor surface was regenerated with glycine pH 2.0 after each antigen injection. Obtained sensorgrams were double referenced (subtraction of reference flow cell signal and buffer injection) and were fitted to a 1:1 Langmuir binding model to derive kinetic data using the Biacore T200 Evaluation software.

| Binder | Kd |
| --- | --- |
| B2 | 6.4 nM |

What follows are binders tested against T2, Human Semaphorin3A-Sema Domain, … (assay: SPR, captured antibody, Sema3A domain analyte).
Experimental: as §1

| Binder | Kd |
| --- | --- |
| B2 | 8.7 nM |
| B3 | 0.053 nM |
| B4 | 0.049 nM |
| B5 | 0.049 nM |
| B6 | 0.05 nM |
| B7 | 0.051 nM |
| B8 | 0.049 nM |
| B9 | 0.053 nM |
| B10 | 0.052 nM |
| B11 | 0.049 nM |
| B12 | 0.052 nM |

Each binder was assayed against T3, Mouse Semaphorin3A-Sema Domain, … (assay: SPR, captured antibody, Sema3A domain analyte).
Experimental: as §1

| Binder | Kd |
| --- | --- |
| B2 | 8.1 nM |

These binders were tested against T4, Human Semaphorin3A-Fc (R&D Systems), TPP-13211 (human) (assay: competition ELISA on coated TPP-13211, competitor biotinylated TPP-15374).
T4 construct: R&D Systems 1250-S3; also called recombinant human Sema3A-Fc chimera
T4 sequence (chain, as listed by the source limits assumed): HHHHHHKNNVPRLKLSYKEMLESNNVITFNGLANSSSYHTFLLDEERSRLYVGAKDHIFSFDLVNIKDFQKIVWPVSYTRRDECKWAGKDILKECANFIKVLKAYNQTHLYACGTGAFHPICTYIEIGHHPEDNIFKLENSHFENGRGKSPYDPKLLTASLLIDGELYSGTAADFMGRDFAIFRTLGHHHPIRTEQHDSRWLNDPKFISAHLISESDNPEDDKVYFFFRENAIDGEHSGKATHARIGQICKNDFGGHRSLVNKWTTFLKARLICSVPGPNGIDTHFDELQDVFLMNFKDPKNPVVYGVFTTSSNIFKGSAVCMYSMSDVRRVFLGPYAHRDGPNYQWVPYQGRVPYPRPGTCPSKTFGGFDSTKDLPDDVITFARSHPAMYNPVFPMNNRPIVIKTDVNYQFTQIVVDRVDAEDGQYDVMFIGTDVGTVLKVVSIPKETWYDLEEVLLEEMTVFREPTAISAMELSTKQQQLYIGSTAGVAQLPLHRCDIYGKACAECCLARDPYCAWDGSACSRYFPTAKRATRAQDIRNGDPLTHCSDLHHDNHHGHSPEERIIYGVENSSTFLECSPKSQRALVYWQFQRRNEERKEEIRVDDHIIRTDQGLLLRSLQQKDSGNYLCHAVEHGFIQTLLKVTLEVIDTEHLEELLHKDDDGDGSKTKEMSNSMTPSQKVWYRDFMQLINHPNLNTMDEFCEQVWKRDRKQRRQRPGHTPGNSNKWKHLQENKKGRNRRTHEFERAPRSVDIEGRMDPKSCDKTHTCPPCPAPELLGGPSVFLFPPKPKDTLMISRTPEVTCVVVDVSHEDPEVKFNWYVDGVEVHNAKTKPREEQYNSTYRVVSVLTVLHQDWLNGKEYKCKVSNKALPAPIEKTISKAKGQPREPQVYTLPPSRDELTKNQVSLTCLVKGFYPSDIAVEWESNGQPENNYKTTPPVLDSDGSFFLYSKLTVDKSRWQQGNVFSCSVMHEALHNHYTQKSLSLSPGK
Experimental: For screening in a competition ELISA setup, human Sema3a (TPP-13211) was coated onto 384-well plates (Greiner bio-one, 781077) with a concentration of 0.5 μg/ml in coating buffer (Carbonate-Basis pH 9.6, Candor 121125) over night at 10° C. After washing the plates 3 times with 50 μl PBS 0.05% Tween the plates were blocked with 50 μl Smart Block® (Candor 113500) for 1 h at 20° C. and washed again 3 times as described.
Subsequently, 20 μl of pre-mixed antibody solution was added to the plates and incubate for 18 h at 10° C. […] The total concentration of the added antibody solution was 0.25 μg/ml. During the incubation time the antibodies bound to the plates in a competitive manner as they compete for the same epitope on the human Sema3A protein.
After subsequent washing with 50 μl PBS 0.05% Tween for 3 times, 20 μl of a Streptavidin-HRP solution (R&D Systems, DY998, 1:200 in PBS 0.05% Tween 10% Smart Block) were added and incubated for 1 h and 20° C. followed by subsequent washing 3 times with 50 μl PBS 0.05% Tween and addition of 20 μl Amplex Red solution (Invitrogen A12222, 1:1000 in NaP-buffer 50 mM pH7.6 with 1:10000 of 30% H2O2). After a final incubation for 20 min at 20° C. the signal was determined using an emission wavelength of 595 nm and excitation of 530 nm.

| Binder | VAL norm to TPP-9809 (1 to 1 ratio) | VAL norm to TPP-9809 (1 to 5 ratio) |
| --- | --- | --- |
| B3 | 0.36 | 0.18 |
| B4 | 0.48 | 0.19 |
| B5 | 0.43 | 0.17 |
| B6 | 0.36 | 0.2 |
| B7 | 0.37 | 0.17 |
| B8 | 0.41 | 0.15 |
| B9 | 0.47 | 0.19 |
| B10 | 0.39 | 0.26 |
| B11 | 0.39 | 0.23 |
| B12 | 0.49 | 0.18 |

The binders below were run against T4, Human Semaphorin3A-Fc (R&D Systems), … (assay: cell-based or functional assay).

| Binder | EC50 [nM], MCM assay |
| --- | --- |
| B1 | 42.9 nM |
